Patent publication US9732156B2, “Methods of treating rheumatoid arthritis using antibodies to matrix metalloproteinase 9” (Gilead Biologics, Inc., priority 2012, dated 2017)

B1: AB0041: mouse monoclonal antibody to human MMP9, mouse IgG2b heavy chain (SEQ ID NO: 1) and mouse kappa light chain (SEQ ID NO: 2) (antibody, listed as Mus musculus)
heavy: MAVLVLFLCLVAFPSCVLSQVQLKESGPGLVAPSQSLSITCTVSGFSLLSYGVHWVRQPPGKGLEWLGVIWTGGTTNYNSALMSRLSISKDDSKSQVFLKMNSLQTDDTAIYYCARYYYGMDYWGQGTSVTVSSAKTTPPSVYPLAPGCGDTTGSSVTLGCLVKGYFPESVTVTWNSGSLSSSVHTFPALLQSGLYTMSSSVTVPSSTWPSQTVTCSVAHPASSTTVDKKLEPSGPISTINPCPPCKECHKCPAPNLEGGPSVFIFPPNIKDVLMISLTPKVTCVVVDVSEDDPDVRISWFVNNVEVHTAQTQTHREDYNSTIRVVSALPIQHQDWMSGKEFKCKVNNKDLPSPIERTISKIKGLVRAPQVYILPPPAEQLSRKDVSLTCLVVGFNPGDISVEWTSNGHTEENYKDTAPVLDSDGSYFIYSKLDIKTSKWEKTDSFSCNVRHEGLKNYYLKKTISRSPGK
light: MESQIQVFVFVFLWLSGVDGDIVMTQSHKFMSTSVGDRVSITCKASQDVRNTVAWYQQKTGQSPKLLIYSSSYRNTGVPDRFTGSGSGTDFTFTISSVQAEDLAVYFCQQHYITPYTFGGGTKLEIKRADAAPTVSIFPPSSEQLTSGGASVVCFLNNFYPKDINVKWKIDGSERQNGVLNSWTDQDSKDSTYSMSSTLTLTKDEYERHNSYTCEATHKTSTSPIVKSFNRNEC
modifications: CHAIN (1)...(470) AB0041 heavy chain; CHAIN (1)...(234) AB0041 light chain
B2: AB0045: humanized variant anti-MMP9 antibody, modified IgG4 (S241P), heavy chain variant VH3 (SEQ ID NO: 7), light chain Vk4 (SEQ ID NO: 12) (antibody, V domains shown)
VH: QVQLQESGPGLVKPSETLSLTCTVSGFSLLSYGVHWVRQPPGKGLEWLGVIWTGGTTNYNSALMSRFTISKDDSKNTVYLKMNSLKTEDTAIYYCARYYYGMDYWGQGTLVTVSS
VL: DIQMTQSPSSLSASVGDRVTITCKASQDVRNTVAWYQQKPGKAPKLLIYSSSYRNTGVPDRFSGSGSGTDFTLTISSLQAEDVAVYYCQQHYITPYTFGGGTKVEIK
modifications: modified IgG4 S241P constant region

How the values were obtained:
[1] = tested on: adjuvant arthritis (AIA); assay: Adjuvant-induced arthritis (AIA) rat model of established disease; settings: in vivo
Description: The anti-MMP9 antibody, AB0041, was efficacious in treating both inflammation and joint damage in both adjuvant and collagen-induced arthritis (AIA, CIA) rat rheumatoid arthritis models of established disease.

[2] = molecular target: T1, MMP9 (Homo sapiens, UniProt P14780); assay: Comparison of binding and inhibitory properties of anti-MMP9 antibodies; settings: AB0045 compared with AB0041
Target sequence in this assay (P14780 94-707, species assumed): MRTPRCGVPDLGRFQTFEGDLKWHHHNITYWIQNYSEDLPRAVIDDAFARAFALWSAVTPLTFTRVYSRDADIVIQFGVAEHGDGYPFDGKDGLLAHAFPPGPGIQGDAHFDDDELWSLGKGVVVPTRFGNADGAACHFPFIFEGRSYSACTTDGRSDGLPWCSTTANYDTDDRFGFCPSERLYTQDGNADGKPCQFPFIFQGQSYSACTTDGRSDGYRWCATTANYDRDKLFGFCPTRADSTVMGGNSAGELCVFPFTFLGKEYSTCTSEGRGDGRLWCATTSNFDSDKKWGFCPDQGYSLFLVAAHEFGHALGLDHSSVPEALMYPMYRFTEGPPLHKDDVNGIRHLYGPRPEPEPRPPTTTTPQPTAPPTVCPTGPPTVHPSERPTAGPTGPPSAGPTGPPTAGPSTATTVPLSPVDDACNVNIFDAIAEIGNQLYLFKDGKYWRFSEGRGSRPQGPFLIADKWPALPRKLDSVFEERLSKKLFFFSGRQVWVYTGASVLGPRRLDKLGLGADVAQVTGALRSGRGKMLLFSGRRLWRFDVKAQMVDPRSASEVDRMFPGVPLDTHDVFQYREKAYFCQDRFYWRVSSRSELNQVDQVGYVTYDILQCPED

[3] = tested on: lipopolysaccharide (LPS)-induced animal death; assay: LPS-induced septicemia model; assay type: in vivo, rat; settings: after four days
[4] = AB0041 serum levels by indirect binding ELISA in the MSS study; assay type: in vivo, rat; settings: Day 0 to Day 28; 50 mg/kg IV twice per week
Description: Levels of AB0041 in rat serum were measured by an indirect binding ELISA. ELISA plates were coated with 2 μg/ml of […] in 50 mM sodium borate overnight at 4° C. The plates were blocked with 5% bovine serum albumin (BSA) in phosphate buffered saline, pH 7.4 (PBS) and washed with 0.05% Tween 20 in PBS (PBST). A standard curve was prepared by serially diluting AB0041 in PBST to generate a series ranging from 3,000 ng/ml to 1.5 ng/ml. Serum samples were diluted at least 1:100 in PBST then added to the pre-coated ELISA plate. After one-hour incubation, the plates were washed and polyclonal goat-anti mouse IgG-HRP detection antibody (Thermo Scientific, Fair Lawn, N.J.) was added to the plate at 1:10,000 dilution in 0.5% BSA/PBS. The plates were washed and signal was detected by addition of 3,3′,5,5′-tetramethylbenzidine (TMB) (Sigma Aldrich, St. Louis, Mo.) for 2 minutes. The reaction was stopped by addition of 1M hydrochloric acid (HCl) and absorbance at 450 nm was measured. AB0041 levels in serum were back-calculated using a four-parameter curve fit in the SoftMax software package (Molecular Devices).

[5] = tested on: collagen-induced arthritis; assay: Collagen-induced arthritis (CIA) rat model of established disease; assay type: in vivo
Description: This example provides additional characterizations of the animals in example 7 that were treated with either vehicle, AB0041 (in the rat model) or AB0046 (in the mouse model) at 2, 10, or 50 mg/Kg, Enbrel at 10 mg/Kg, or methotrexate (MTX) at 0.5 mg/Kg.
In addition to clinical scoring in Table 6 that was conducted in example 7, paw swelling, ankle diameter and body weights of the treated animals were measured. The measurements were conducted once a week before randomization and three times a week thereafter.
In addition, hind limbs were examined microscopically for soft-tissue changes (edema, tissue/vessel necrosis, inflammatory cell infiltration, and fibroplasias) and cartilage and bone changes (cartilage erosion, bone erosion, periosteal bone formation, synovitis, pannus formation, and joint destruction). […] The severity scores were based on global changes in each limb.
For anti-TNF-alpha scoring, the entire region of the limb anterior to the tarsal-metatarsal joint was scored. Anti-CD68 staining was evaluated using 3-4 images per limb of synovial membranes in the joints formed by the talus bone, with the scores of each membrane averaged and the value assigned as the overall inflammation score. […] Also, MMP9-expressing cells were identified as osteoclasts and cells of the monocyte/macrophage lineage.
Further, serum panel analyses of terminal serum samples were characterized using ELISA. […] AB0046 titers were measured in terminal serum samples.

[6] = tested on: CD4+ T cell; assay: EpiScreen ex vivo human T cell activation assay (immunogenicity); assay type: cell-based; settings: for donors in which a response was induced: CD4+ T cell response, 20 healthy donors of various HLA haplotypes
Description: The potential clinical immunogenicity of the chimeric MMP9 antibody AB0041 and the humanized MMP9 antibody AB0045 was assessed. An ex vivo human T cell activation assay, the EpiScreen (Antitope, Ltd., Cambridge, UK) was used. The T cell activation in the EpiScreen assay has been correlated to the antibody/protein therapeutic responses in patients. The response of CD4+ T cell in 20 healthy donors, representing a variety of HLA haplotypes, was examined. […] A positive control of KLH induced a response in 95% of the donors, with a magnitude of 6.34+/−2.77 (mean+/−standard deviation).

[7] = tested on: Lewis rats; settings: rat, in vivo
Description: AB0041 was evaluated for safety in Lewis rats in comparison to the pan-MMP inhibitor, Marimastat, in a 28-day study.
Six rats per group were intravenously administered twice per week with either AB0041 at 50 mg/kg or Vehicle-A (10 mM sodium phosphate, pH 6.5, 140 mM sodium chloride, 0.01% Tween20). In addition, six rats per group were treated with Marimastat or Vehicle-M (50% DMSO/50% water) through a surgically implanted subcutaneous Alzet pump (Alzet, Cupertino, Calif.), which delivered at a rate of 2.5 μl/hour for a period of 28 days. The Marimastat release rate was between 6.8 to 5.7 mg/kg/day.
Animals were observed and scored daily for signs of MSS, such as reluctance to move and avoidance of the use of the hind feet. The following system was used to score resting posture, gait and willingness to move: resting posture was scored as 0 (normal), 1 (resting on one foot) or 2 (resting on neither one foot nor two feet). Gait was scored as either 0 (normal), 1 (avoids use of one hind foot) or 2 (avoids use of both hind feet). Willingness-to-move upon stimulation was scored as either 0 (normal movement), 1 (somewhat reluctant to move), 2 (moderately reluctant to move) or 3 (very reluctant to move). In addition, the body weights were recorded twice weekly.
Total scores were calculated as the sum of gait score, resting posture score and willingness-to-move score for each animal. Mean total scores per group were calculated as the average of the total scores from all individual animals per group per day.
Serum was collected from all rats on one day before and days 1, 7, 10, 14, 17, 21, 24, 28 post administration. Serum was centrifuged at 10,000×g for 10 minutes and collected for storage at −20° C. Serum was subject to multianalyte serum protein analysis (RodentMAPv2.0, IDEXX Laboratories).
Tissues and limbs from the rats were harvested and fixed in 10% neutral buffered formalin for histopathologic analysis using hematoxylin and eosin (H&E).

[8] = molecular target: T1, MMP9; assay: IHC binding of AB0045 in UC patient colon tissue; parameters: from tissue; host or cells: colon tissue (biopsies) of human ulcerative colitis patients
Description: Biopsy samples from human patients with ulcerative colitis (UC) and healthy individuals were examined by immunohistochemistry (IHC) using the MMP9-specific antibodies. Antibodies against myeloperoxidase (MPO, a neutrophil marker; Wirtz 2007), collagen IV (COLIV, basement membranes) and CD31 (endothelial cells) were used to assess disease severity and tissue infrastructure. Staining patterns of TIMP1 and MMP2 also were examined. PMK2 (a macrophage marker) also was assessed.
Target sequence in this assay (P14780 94-707): as the sequence (P14780 94-707, species assumed) above

Row | Molecule | inflammation and joint damage [1] | binding and inhibitory properties [2] | animals surviving [3] [%] | mean steady-state serum levels [4] [mg/mL] | soft tissue disease, joint damage and destruction (histology) ([5]; 50 mg/kg) | CD68 score by IHC ([5]; 50 mg/kg, compared to vehicle) | TNF-alpha score by IHC ([5]; 50 mg/kg, compared to vehicle) | arthritis clinical scores ([5]; 50, 10 and 2 mg/kg twice per week (4 doses)) | qualitative and quantitative measurements of clinical disease (paw swelling, ankle diameter, body weight) ([5]; all doses (2, 10, 50 mg/Kg)) | serum levels of TNFα, IL-6 and IL-17A ([5]; end of study) | serum markers (TIMP-1, GM-CSF, MIP-2, MIP-1β, M-CSF-1, OSM, CXCL10, MCP-5, IL-12p70, INF-γ, IL-12, IL-7) ([5]; terminal serum, ELISA) | donors in which a response was induced [6] | magnitude of response ([6]; mean+/−standard deviation) | H&E staining of hind knee joints [7] | average MSS score [7] | histopathology of primary organs (H&E) [7] | rats with slight limping, avoidance of one hind foot (gait score=1) [7] | serum chemistry panel [7] | signs of MSS ([7]; iv, 50 mg/kg) | binding to MMP9 by IHC [8]
1 | B1 | efficacious | equivalent binding and inhibitory properties | 70 | 2 to 4 | reduced all measures of soft tissue diseases, joint damage and destruction | significant reduction | significant reduction | reduced arthritis clinical scores | significant reversal/mitigation | efficacious in reducing serum levels | statistically significant reduction | 20% | 2.29+/−0.36 | No synovitis or fibrosis was observed | zero | No treatment-related abnormalities were observed | No symptoms were detected | within normal ranges | No signs of MSS | 
2 | B2 |  | equivalent binding and inhibitory properties |  |  |  |  |  |  |  |  |  | did not induce response in any of the donors |  |  |  |  |  |  |  | bound to MMP9 in UC patient colon tissue
